This test concerns the target Glucocorticoid-induced TNFR-related protein (GITR) (mouse (endogenous in CD4+ T cells of mice)) (UniProt O35714).
UniProt O35714, sequence (O35714 20-228): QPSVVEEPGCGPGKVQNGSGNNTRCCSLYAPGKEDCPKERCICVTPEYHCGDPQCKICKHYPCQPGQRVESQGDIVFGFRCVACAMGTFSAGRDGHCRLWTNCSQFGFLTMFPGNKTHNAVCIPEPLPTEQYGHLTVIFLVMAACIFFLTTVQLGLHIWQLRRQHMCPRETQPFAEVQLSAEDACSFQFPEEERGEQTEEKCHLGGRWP

“His-tagged recombinant mouse GITR Ligand (from UniProt Q7TS55 1-173)”: the percent Foxp3+ T cells by flow cytometry: OT-II CD4+ T cells activated with OVA and autologous APCs, TGF-β and IL-2, 3 days; >60% without GITR stimulation is 10%; the percent Foxp3+ T cells by flow cytometry: WT B6 naive CD4+ T cells activated 3 days under iTreg-polarizing conditions with His-GITR Ligand (200 ng/ml plus anti-His mAb); ∼65% without GITR ligation was found to be 4%; the percent IL-9+ Th9 cells by flow cytometry: WT B6 naive CD4+ T cells activated 3 days under iTreg-polarizing conditions with GITR ligation came to 30%.

The values above are taken from PMC4570275.
